# Assay results taken from paper PMC12703665, “A Trifunctional, Rare-Earth Theranostic Chelator Platform to Enable Diagnostic Nuclear Imaging, Surgical Resection, and Radiotherapy” (Journal of the American Chemical Society, 2025).
# How the values were obtained:
# in vivo = conditions: male, athymic nude, mouse, intravenous, total radioactivity, 2 h post injection, n = 4
# Procedure: (§1) For in vivo evaluation, athymic nude mice-bearing bilateral PC-3 PIP/flu (PSMA^+/PSMA^–) tumor xenografts were used (Figure ).
# (§2) 5.1.1 Urine metabolite analysis
# (§3) Metabolite analysis was performed by analyzing aliquots of 100 µL of mouse urine collected during biodistribution studies. If the collected urine volume was less than 100 µL, 1X DPBS was added in order to bring it up to a final volume of 100 µL. In cases where the radioactivity present in urine decayed to levels too low for detection by HPLC, fractions eluted from the radioHPLC were collected every 30 seconds, and the amount of radioactivity was estimated via gamma counting (Hidex Automatic Gamma Counter). The chromatogram was then reconstructed by plotting the recorded counts per minute recorded for each fraction […]
# (§4) 5.2 In vitro optical imaging
# (§5) Tumor tissues were harvested from male, nude, athymic mice bearing xenografts from PC3-PIP (PSMA+) and PC3-flu (PSMA-) were fixed for (24) hours in 10% neutral buffered formalin, processed and embedded into paraffin blocks. Tissues were sectioned at 5µm, dried and then deparaffinized with a 25-minute oven bake at 60°C, followed by a series of xylene and alcohol washes
# (§6) Antigens were prepared in PerkinElmer’s 1X Antigen Retrieval pH 9.0 (AR900250ML) for 8 minutes in the microwave. Tissue sections were blocked with 1X Antibody Diluent/Block buffer (Akoya).
# (§7) Ab-PSMA, natEu-pepa-pic2-C-Hex-KuE and DAPI staining.
# (§8) Tissues were stained with Ab-PSMA (Ventana 760-6076; 11.75 µg/mL; 100uL per slide) for 30 minutes at room temperature. Slides were washed with TBS-T and secondary goat anti-rabbit was applied for 10 minutes at room temperature. Slides were washed with TBS-T and Akoya’s Opal dye 520 was applied for 10 minutes at room temperature. Antigen retrieval and blocking steps were performed again.
# (§9) An aqueous solution of natEu-pepa-pic2-C-Hex-KuE (10 µM) was diluted at 1:1 with 1X Diluent/Block (Akoya) and 100 µL were applied per slide for 2 hours at room temperature. For DAPI staining, DAPI working solution (Akoya) was applied for 10 minutes at room temperature before mounting with ProLong™ Gold Antifade Mountant. Slides were imaged by Nuance Multispectral Scope at 20x objective.
# (§10) 5.3 In vivo biodistribution in PSMA +/- mice models, PET-CT and SPECT imaging.
# (§11) Male, nude, athymic mice were purchased from Jackson Laboratory. Ten days preceding the imaging study, mice were implanted with 1 × 10^6 cells (PC-3 PIP on the right, PC-3 flu on the left shoulder) in 100 µL of a 1:2 mixture of DPBS 1X/matrigel matrix subcutaneously.
# (§12) A solution of 100 µL of labeled radiotracer was administered via tail vein injection into 8–10-week-old male nude mice (n = 4 per cohort) bearing PSMA+/- tumors.
# (§13) For biodistribution studies, mice were euthanized at 2 hours (n=4) post-injection of the radio tracer. Organs were extracted, intestinal content removed, and activity assessed via a gamma counter. Biodistribution analysis values are represented as percentage of injected dose per gram of organ weight (% ID/g).
# [1] = system: PC-3 PIP/flu (PSMA+/PSMA–) tumor xenografts; assay: in vivo; conditions: 2 h post injection, n = 4, listed as [161Tb]TbIII-pepa-pic2-C-Hex-KuE
# Procedure: as §1, §2, §3, §4, §5, §6, §7, §8, §9, §10, §11, §12, §13
# [2] = system: PC-3 PIP/flu (PSMA+/PSMA–) tumor xenografts; conditions: biodistribution 2 h p.i. and SPECT 0.5-25 h
# Procedure: Following radiochemical labeling and formulation in PBS, [^177Lu]­Lu-pepa-pic2-C-hex-KuE and [^161Tb]­Tb-pepa-pic2-C-hex-KuE were evaluated by single point biodistribution (2 h p.i.) and serial SPECT imaging at 0.5, 1, 1.5, 4, and 25 h in direct comparison with the clinically validated radiopharmaceutical [^177Lu]­Lu-PSMA-617 as well as [^161Tb]­Tb-PSMA-617 (Figure d–e, Supporting Information, Figures S52–S55, and Table S2).
# Representative PET-CT (Y-86) or SPECT (Lu-177, Tb-161) images were acquired at different time points starting as early as 0.5 h and up to 25-hours post administration of radiotracer. Mice were initially anesthetized with isoflurane gas at 4% isoflurane in oxygen and maintained during scans at 2.0%. PET-CT and SPECT images were normalized to units of percentage of injected dose per cubic centimeter and presented as maximum intensity projected scan (MIPS) images.
# PET-CT scans were acquired in a Siemens Inveon Hybrid MicroPET/CT Scanner (Siemens Medical Solutions USA, Inc., Knoxville, TN), and image processing and region of interest (ROI) analysis conducted using the Inveon Research Workstation analysis software. ROI analysis of the PET/CT images was used to estimate tracer uptake in major organs or tissues, and quantitative results are given as percentage of injected dose per cubic centimeter (%ID/cc). […]
# [3] = 277 nm; ref 11 (SI); cited from earlier work
compound,measurement,setting,value
"COCCOCCOCCOc1ccc(C#Cc2cc(CN3CCN(Cc4cccc(C(=O)O)n4)CCN(Cc4cc(SC[C@H](N)C(=O)NCCCCCC(=O)NCCCC[C@H](NC(=O)N[C@@H](CCC(=O)O)C(=O)O)C(=O)O)cc(C(=O)O)n4)CC3)nc(C(=O)O)c2)cc1 [[161Tb]Tb-pepa-pic2-C-Hex-KuE, metal not drawn]",tissue uptake at 2 h,"in vivo; PSMA- tumor, Tumor -",0.7 ± 1.59 %ID/g
same,Blood,[1],0.45 ± 0.06 % ID/g
same,Bone,[1],0.24 ± 0.03 % ID/g
same,Heart,[1],0.21 ± 0.03 % ID/g
same,Kidney,[1],17.89 ± 2.70 % ID/g
same,Large Intestine,[1],0.98 ± 1.44 % ID/g
same,Liver,[1],0.64 ± 0.09 % ID/g
same,Lungs,[1],0.50 ± 0.07 % ID/g
same,Muscle,[1],0.11 ± 0.03 % ID/g
same,Small Intestine,[1],0.33 ± 0.37 % ID/g
same,Spleen,[1],0.50 ± 0.09 % ID/g
same,Tumor +,[1]; PSMA+ tumor,7.33 ± 1.59 % ID/g
"COCCOCCOCCOc1ccc(C#Cc2cc(CN3CCN(Cc4cccc(C(=O)O)n4)CCN(Cc4cc(SC[C@H](N)C(=O)NCCCCCC(=O)NCCCC[C@H](NC(=O)N[C@@H](CCC(=O)O)C(=O)O)C(=O)O)cc(C(=O)O)n4)CC3)nc(C(=O)O)c2)cc1 [[177Lu]Lu-pepa-pic2-C-Hex-KuE, metal not drawn]",uptake of activity in the PSMA-expressing tumor,[2],"persistent, statistically significant uptake"
same,tissue uptake at 2 h,"in vivo; PSMA+ tumor, Tumor +, PSMA+ tumor",4.57 ± 0.9 %ID/g
same,tissue uptake at 2 h,in vivo; blood,0.3 ± 0.1 %ID/g
same,tissue uptake at 2 h,in vivo; bone,0.25 ± 0.02 %ID/g
same,tissue uptake at 2 h,in vivo; heart,0.19 ± 0.07 %ID/g
same,tissue uptake at 2 h,in vivo; kidney,25.9 ± 8.51 %ID/g
same,tissue uptake at 2 h,in vivo; large intestine,0.49 ± 0.27 %ID/g
same,tissue uptake at 2 h,in vivo; liver,0.5 ± 0.05 %ID/g
same,tissue uptake at 2 h,in vivo; lungs,0.47 ± 0.26 %ID/g
same,tissue uptake at 2 h,in vivo; muscle,0.11 ± 0.05 %ID/g
same,tissue uptake at 2 h,in vivo; small intestine,0.33 ± 0.27 %ID/g
same,tissue uptake at 2 h,in vivo; spleen,0.53 ± 0.24 %ID/g
PSMA-617,ε277,[3],4268 M⁻¹ cm⁻¹
